Where a chain is given by its changes, count along the chain named. Like-named read-outs stand apart in the source and are kept apart here.
Legend:
[1] = Osteogenic activity of refolded E. coli-expressed constructs incorporated in a matrix; assay type: in vivo; details: refolded constructs from SDS gel slices incorporated in a matrix; histological examination
Excerpt: Samples of the various purified constructs and various mixtures of pairs of the constructs refolded together were applied to SDS polyacrylamide gels, separated by electrophoresis, sliced, incorporated in a matrix as disclosed below, and tested for osteogenic activity.

[2] = test system: FRC (fetal rat calvarial) cells; assay: Alkaline phosphatase (AP) activity assay in FRC cells; assay type: cell-based
Protocol: A preferred assay for testing potential MPSFs with OP-1 for osteogenic activity is the alkaline phosphatase (AP) enzymatic assay. AP is an osteoblast differentiation marker in primary osteoblastic FRC. (fetal rat calvarial) cells. The OP-1-stimulated AP activity is the result of increased steady-state AP mRNA levels as measured by Northern analysis. The procedure is generally as follows.
Primary osteoblast cell cultures were prepared from fetal rat calvaria using published procedures (M. A. Aronow et al., J. Cell Physiol., 143, pp. 213–221 (1990); T. K. McCarthy et al., J. Bone Miner. Res., 3, pp. 401–8 (1988)). Briefly, cells were harvested by sequential collagenase digestions of the calvarium and cells from digestions III to V were pooled. Fetal rat calvaria (FRC) cells were plated in complete medium (MEM, alpha; GIBCO/BRL, Grand Island, N.Y.) containing 10% fetal bovine serum, vitamin C (100 μg/ml), and antibiotics (100 U/ml penicillin, and […]). Cultures were incubated at 37° C. with 95% air/5% CO2 for several days to reach confluence. Cells were then subcultured for experimentations.
FRC cells were subcultured in 48-well plates (COSTAR, Cambridge, Mass.) in complete MEM medium with 10% fetal bovine serum until confluent in about 4 days. Confluent cells were rinsed with Hank's balanced salt solution (HBSS) and treated with serum-free α-MEM medium (with 0.1% BSA, 100 U/ml penicillin, and […]) containing the appropriate solvent vehicle (50% acetonitrile/0.1% trifluoroacetic acid for OP-1 treatment or 0.1N acetic acid for IGFI treatment) or recombinant human OP-1, or IGFI at the concentrations indicated. Solvent vehicle concentration in the culture medium never exceeded 0.1%. At the end of treatment, cells were lysed and total cellular alkaline phosphatase activity was measured (typically after 48 hours of treatment).
Total cellular alkaline phosphatase activity was determined using a commercial assay kit (Sigma, St. Louis, Mo.). Cell lysates were prepared by aspirating the medium from the 48-well plate, rinsing the cells with ice-cold PBS, and lysing the cells with 0.05% Triton X-100 and sonication for 60 sec. Alkaline phosphatase activity in the lysates was measured in 2-amino-2-methyl-1-propanol buffer (pH 10.3) with p-nitrophenyl phosphate as substrate at 37° C. Reactions were performed in 96-well plates for 1–2 h. Following color development, reactions were terminated with 0.5N NaOH. Absorbance of the reaction was measured at 405 nm using a Hewlett Packard Genenchem automatic plate reader. Total protein level in the lysates was measured according to Bradford (M. Bradford, Anal. Biochem., 72, pp. 248–54 (1976)) using bovine serum albumin as a standard. Alkaline phosphatase activity was expressed as nmol p-nitrophenol liberated per microgram of total cellular protein. […]
At least four experimental groups were tested: control cells treated with no OP-1 or MPSF; group I cells treated with increasing concentrations of MPSF alone; […]; and group III cells, […] concentrations of the MPSF.

[3] = cited from earlier work
[4] = 200 nM PTH + 200 ng/ml OP-1, 48 hours (FIG. 9)

B1: COP5: synthetic consensus osteogenic protein, Seq. ID No. 2 (protein)
chain: LYVDFSDVGWDDWIVAPPGYQAFYCHGECPFPLADHFNSTNHAVVQTLVNSVNSKIPKACCVPTELSAISMLYLDENEKVVLKYNQEMVVEGCGCR
**Q.** For B1, which Osteogenic activity [1] is on record?
**A.** The Osteogenic activity was “induce osteogenesis”.

B2: COP7: synthetic consensus osteogenic protein, Seq. ID No. 3 (protein)
chain: B1 chain with D11N, Q21H, F37L
**Q.** For B2, which Osteogenic activity [1] is on record?
**A.** Its Osteogenic activity is “induce osteogenesis”.

B3: PTH: parathyroid hormone, purchased from Sigma (protein, UniProt P01270 32-115, looked up)
Parathyroid hormone: SVSEIQLMHNLGKHLNSMERVEWLRKKLQDVHNFVALGAPLAPRDAGSQRPRKKEDNVLVESHEKSLGEADKADVNVLTKAKSQ
modifications: Parathyroid hormone
notes: parathyroid hormone, purchased from Sigma
**Q.** With B3 as the molecule, how does the “Level of AP activity relative to cells treated with OP-1 alone” value [2, 4] read?
**A.** Its value is “about two-fold”.

**Q.** And the “Level of AP activity relative to control cells” value [2, 4]?
**A.** The value was “about five-fold”.

**Q.** What about the “MPSF function in concert with OP-1 (figure title)” value ([2]; AP activity in FRC cells, OP-1 200 ng/ml (FIGS. 5–10)) of the same molecule?
**A.** Its value is “is a MPSF in concert with OP-1”.

**Q.** And the “Effect on OP-1-induced stimulation of AP activity” value ([2]; PTH 25 and 100 nM + 200 ng/ml OP-1, 48 hours (FIG. 9))?
**A.** The value was “no effect”.

**Q.** What about the “Stimulation of AP activity by PTH alone” value ([2]; PTH 25–200 nM alone, 48 hours (FIG. 9)) of the same molecule?
**A.** Its value is “did not stimulate AP activity”.

**Q.** What about the “Effect of PTH on AP activity induced by the OP-1/IGF-I combination” value ([2]; PTH at least about 50 nM + 200 ng/ml OP-1 + 25 ng/ml IGF-1) of the same molecule?
**A.** The value was “significantly increased”.

B4: OP-1: osteogenic protein OP-1 (BMP-7), morphogenic protein of the BMP family; recombinant human OP-1 used in FRC assays (protein, UniProt P18075 293-431, looked up)
Bone morphogenetic protein 7: STGSKQRSQNRSKTPKNQEALRMANVAENSSSDQRQACKKHELYVSFRDLGWQDWIIAPEGYAAYYCEGECAFPLNSYMNATNHAIVQTLVHFINPETVPKPCCAPTQLNAISVLYFDDSSNVILKKYRNMVVRACGCH
**Q.** Which results are given for B4?
**A.** Stimulation of AP activity above vehicle-treated control culture ([2]; OP-1 500 ng/ml, 48 hours (FIG. 2)): 1.6 fold; Osteogenic activity ([3]; deglycosylated protein, about 27 kD): has osteogenic activity; Osteogenic activity ([3]; native 30–35 kD protein in the reduced state): no detectable osteogenic activity

From US7026292B1, “Compositions and therapeutic methods using morphogenic proteins and stimulatory factors” (Stryker Corporation, priority 1995, dated 2006)
